Test results: the nanobody polyreactivity screen of Harvey et al. (2022)

Experiment: yeast display, Sf9 membrane polyspecificity reagent, FACS + sequencing; frameworks hold sequencing errors
Summary of the method: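 Galactose-induced (36–48 hours) yeast carrying a synthetic nanobody display library were exposed to 10% biotinylated, detergent-solubilized Sf9 membrane reagent at 4 °C for 1 hour. FACS followed streptavidin microbead enrichment, using low and high (top ~1%) gates for expression (anti-HA) and reagent binding (streptavidin). Colony PCR, MiSeq 2 × 250 sequencing and CDR-length filtering followed. Labels for polyreactivity reflect the gate of origin.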

QVQLVESGGGLVQAGGSLRLSCAASGGIFSVYAMGWYRQPPGKERELVASITVSGGSTSYADSVKGRFTISRDTAKNTVYLQMNSLKPEDTAVYYCNTDFGQAHTLSWYEDMDYWGQGTQVTVSS
polyreactivity (PSR sort gate): low polyreactivity

QVQLVESGGGLVQAGGSLRLSCAASGFTFRRYAMGWYRQAPGKEREFVAAITTRGSNTYYADSVKGRFTISRDNAKNTVYLQMNSLKPEDTAVYYCAASYYPPGHYDYWGQGTQVTVSS
polyreactivity (PSR sort gate): high polyreactivity

QVQLVESGGGLVQAGGSLRLSCAPSGSTLNVYAMGWYRQAPGKERELVAAIRWSGDTYYADSVKGRFTISRDNAKNTVYLQMNSLKPEDTAVYYCAADPGTTYWQRFDYWGQGTQVTVSS
polyreactivity (PSR sort gate): low polyreactivity

QVQLVESGGGLVQAGGSLRLSCAASGSTFYSNAMGWDRQAPGKERELVASISWSSGSTYYADSVKGRFTISRDNAKNTVYLQMNSLKPEDTAVYYCATDAGGPYRFGYWGQGTQVTVSS
polyreactivity (PSR sort gate): low polyreactivity

QLQLVESCGGLFQAGGSLRLSCADSGSTFGDHAMGCYRQAPGKERELVAVITSDTSTYYADSLKWRLTISRDNAKNTVYLQMNSMKPEDTAVYYCAADWGGLWFWYEYWGQGTQVTVSS
polyreactivity (PSR sort gate): low polyreactivity

QVQLVESGGGLVQAGGSLRLSCAASGSTSSVYAIGWYRQAPGKEREFVASITRRTGITFYADSVKGRFTISRDHAKNTVYLQMNSLKPEDTAVYYCAADFSGSVDYWGQGTQVTVSS
polyreactivity (PSR sort gate): high polyreactivity

QVQLVESGGGLVQAGRSLRLNCAASGSIIKYNAMGWYRPAPGKERELVASISSSGGTTYYADSVKGRFTISRDNAKNTVYLQMNRLTPEDTAVYYCTKYVRAGNGYGEEDYWGQGTQVTVSS
polyreactivity (PSR sort gate): high polyreactivity

QVQLVESGGGLVQAGGSLRLSCAASGYIIGGNAMGWYRQAPAKERELVAVISSRGGRTYYADSVKGRFTISRDNAKNTVSLQMNSQKPEDTAVYDCASIRYRGARGSGDKIFYYWGQGTQVTVSS
polyreactivity (PSR sort gate): high polyreactivity

QVQLVESGGCLVQAGGTLRLSCAASGSILNSYALGWYRQAPGKERELVAAIDNRGGSTHYADSVKGRFTISRDNAKNTVYLQMNSLKPEDTAVYYCAKRFYGSVGYWRYYYWGQGTQVTVSS
polyreactivity (PSR sort gate): low polyreactivity

QVQLVESGGGLVQAGGSLRLTCAASGRIFFYYSMGWYRQAPGKERELVAAIRSGGSTNYADSVKGRFTISRDNAKNTVYLQMYILKPEDTAGYYSAAHPTRYYTPRYYYWGLGTQVTVSS
polyreactivity (PSR sort gate): high polyreactivity

QVQLVESGGGLVQAGGSLRLSCAASGFNFTHYAMGWYRQAPGKERELVAAISRNGGSTYYADSVKGRFTISRDNAKNTVYLQMNSLKPEDTAVYYCAAVRHGVSLAGYYWGQGTQVTVSS
polyreactivity (PSR sort gate): high polyreactivity

QVLLQESGGGLVQAGGSLRLSCAASGSIFLFYTMGWYRQAPVKEREFVAGITLGTTTYNADSVKGRFTISRDNVKNTVYLQMNSLKPEDTAVYYFAVAVGHYTEFWYWGQGTQVTMSS
polyreactivity (PSR sort gate): high polyreactivity

QVQHVESGGGLDQAGGSLRFSCAASGTIFVYNAMGSYREAPGKERELVAAMDTVGSTNYADSVKGRFTISRDNAKNTVYLQMNSLKPEDTAVYYCAVVTPYWSFFEQVIPSNYWGQGSQVTVSS
polyreactivity (PSR sort gate): low polyreactivity

QVQLVESGGGLVQAGASLRLSCAAYGNINAYYAMGWYRQAPGKERELVAAITDSGGNTFYADSVKGRFTISRDNAKNTVYLQMNSLTPADSAVYYCADDPDGWGFVYPRYDYWGQCTQVTVSS
polyreactivity (PSR sort gate): low polyreactivity

EVQLVESGGGLVQPGGSLRLSCAASGYIYSRYRMGWYRQAPGKGREFVAAISGGSSTNYADSVKGRFTSSRDNSKNTVYLQMNSLRAEDTAVYYCAAYKIDSDQRVYWGQGTQVTVSS
polyreactivity (PSR sort gate): low polyreactivity

QVQLVESGGGLVQAGGSLRITCAASGSIYKSNAMGWYRQAPGKEREFVAAITWSGGSTYYADSVKGRFTISRDNAKNTVDLKMNSLKPEDTAVCYCAATQYRSDGWRYDYWGQGTQVTVSS
polyreactivity (PSR sort gate): high polyreactivity

QVQLVESGGGLVQAGGSVRLSCAASGNIFLRNAMGWYRQSPGKERELVAAIRRTGGSTYYADSVKGRFTISRDNAKTTVYLQMNSLKPEDTAVYYCAKRSYTGYEYWGQGTQVTVSS
polyreactivity (PSR sort gate): low polyreactivity

QVQLVESGGGLVQAGGSLRLSCAPSGSIFHYNAMGWYRQAPGKEREFVAVISKSSGSTFYADSVKGRFTISRDNAKNTVYLLMISLKPEDTAVYYCNRVTKRYPNIGNYWGQGTQVSVSS
polyreactivity (PSR sort gate): high polyreactivity

QVQLVDSGGGLLQAGGSLRLSCAASGSTFVAYAMGWYRQAPGKEREFVAGISSSTGGTRYADSVKGRFTISRDNAKNTVYLQMNSLKPEDSAVYYCAADLYFYYVWIRVYWGQGTQVTVSS
polyreactivity (PSR sort gate): low polyreactivity

QVQLVESGGGLVQAGGSLRLSLAASGRTFEYYAMGWYRQAPGKERELVAAITSGGITYYADSVKGRFTISRDNAKNTVYLQMNSLKPEDTAVYYCNDRHRYYRYGYWGQGSQVTVSS
polyreactivity (PSR sort gate): high polyreactivity

QVQLVESGGGLVQAGGSLRLSCAASGSTFFTYAMGWYRQAPGKERELVAAISWSGGTTYYADSVKGRFTISRDNAKNTVYLQMNSLKPEDTAVYYCASDRDGILKANDYWGQGTQVTVSS
polyreactivity (PSR sort gate): low polyreactivity

QVQLVESGGGLVQAGGSLRLSCAASGRILYYYAMGWYRQAPGKERELVAAISWSGGSTYYADSVKGRFTISRDNAKNTVYLQMNSLKPEDTAVYYCAADWRGYRLERAYDYWGQGTQVTVSS
polyreactivity (PSR sort gate): low polyreactivity

QVQLVDSGGGLVQAGGSLRLSCAATGRIFAGYAMGGYRQAPGKERELVAAISDGGTTNYADSVKGRFTISRDNAKNTVYLQMNILKPEDTAVYYCAKDAAESYRYGYWGQGTQVTVSS
polyreactivity (PSR sort gate): low polyreactivity

QVQLVESGGGLVQAGGSLRLSCAASGSIFAYYTMGWYRQAPGNERELVATISSGDITNYADSVKGRFTISRDNAKNTVYLQMNSLKPEDTAVYYCAAAELTSYYRTFIHQDYDYWGQGTQVTVSS
polyreactivity (PSR sort gate): low polyreactivity

QVQLVESGGGLVQAGGILRLSCAASGSTTYYYAMGWYRQQPGKDRELVATISTTGAGTYYADSVKGRFTISRDNAKNTVYLQMNSLKPEDTAVYYCAKDGKASRDDAEYDYWGQGTQVTVSS
polyreactivity (PSR sort gate): low polyreactivity

QVQLVESGGGLVQAGGSLRLSCAASGIIFYDYAMGWYRQAPGKERELVAAITSSGGSTYYADSVKGRFTISRDNAKNTVYLQMNSLKPEDTAVYYCAARTRSYWSTTYYYWGQGTQVTVSS
polyreactivity (PSR sort gate): high polyreactivity

QVQLVESGGGLVQAGGSLRLSCAASGSIFRLYAMGWYRQAPGKEREFVARIRWRGGCTNYADSVKGRITISRDNAKNTVYLQMNTLKPEDTAVYYCAVKGAGGPKYDYWGHGTQVTVSS
polyreactivity (PSR sort gate): high polyreactivity

QVHLVESGGGLVQAGGSLRLSCAASGFIFEPYAMGCYRQAPWKEWELVAAISSGGSTYADSVKGRFTISRDNAKNTVYLQMISLKPEDTAVYYCAADSYYSVWGFYFWGQGTQVTVSS
polyreactivity (PSR sort gate): low polyreactivity

QVQLVESGGGLVQAGGSLRLSCAASGSIIQQYDKGWYRQAPGKHREFVAANSSSGGSTYYADSVKGRFTISRDNAKNTVYLQMNSLKPEDTAVYYCAVDTKGYTYVDYLHGSGEFGYWGQGTQVTVSS
polyreactivity (PSR sort gate): low polyreactivity

QVQLVESGGGLVQAGGSLRLSCAASGRIFPKNAMGWYRQAPGTERELVAAISSGGRTKYADSVKGRFTISRDNAKNTVYLQMNSLKPEDTAVYYCAAYFVSKTGGYYYWGQGTQVSVSS
polyreactivity (PSR sort gate): high polyreactivity

QVQLVESGGGLVQAGGSLRLSCAASGRIFYTNAMGWYRQAPGKERELVAVISWGGDTTYYADSVKGRFTISRDNAKNTVYLQMNSLKPEDTAVYYCKADWGPTYEIYDSWGQGTQVTVSS
polyreactivity (PSR sort gate): low polyreactivity

QVQLVESGGGLVQAGGSLRLSCAASGTIFYINAMGWYRQAPGKERELVAAIRSGGSTNYADSVKGRFTISRDNAKNTVYLQMNSLKPEDTAVYYCNARSRSYVPYYYWGQGTQVTVSS
polyreactivity (PSR sort gate): high polyreactivity

QVQLVESGGGIVQAGGSLRLSCAASGSIFQGNAMGWYRQAAGKERELVAAITYSGGSTYYADSVKGRFTISRDNAKNTVYLQMNSLKPEDTAVSYCNTTLRDSRQYVDRAPYTRYDYWGQGTQVTVSS
polyreactivity (PSR sort gate): low polyreactivity

QVQLVESGGGLVQAGGTLRLSCAASGSIFYPNAMGWYRQAPGKERELVAASSWTGGSTRYADSVKGRFTISRDIAKNTVYLQMNSLKPEDTAVYYCAALYVYRPRTPYGYSGQGTQVTVSS
polyreactivity (PSR sort gate): high polyreactivity

QVQLQESGGGLVLAGGSLRLSCAASGSISAQAYMGWDRQAPGKEREHVAGINYGDNTNYADSVKGRFTISRDNEHSVSADEQPETGRYRGVLLRGFLELFYYYIYWGQGTQVTVSS
polyreactivity (PSR sort gate): high polyreactivity

QVQLVESGGGLVQAGGSLRLTCAASGSTLIDNVMGWYRQAPGKERELVASITSSDGTTYADSVKGRFTISRDNAKNSVYLQMNSLKPEDTAVYYFAARPWYGTYNYWGEGTQVTVSS
polyreactivity (PSR sort gate): low polyreactivity

QVQLVESGGGLVQAGGSLRLTCAASGRTFNPYAMGWYRQAPGKERELVARIRGTGVSTYYADSVKGRFTISRDYAKNTVYLQMNSLKPEDTDVYYINAVATPVSDRWSYLSHGWYYYWGHGTQVTVSS
polyreactivity (PSR sort gate): high polyreactivity

QVQLVESGGGLVQAGGSLRLSCAASGRIFGIYAMGWYRQAPGKERELVATITDSDDSTYYADSVKGRFTISRDNAKNTVNLQMNSLKPEDTAVYYCATAFSYGGGAYDYWGQGTKVTVSS
polyreactivity (PSR sort gate): low polyreactivity

QVQLVESGGGLVQAGGSLRLSCAASGSTYANAMGWYRQAPGKERELVAAITDNGGRTYYADSVKGRFTISRDNAKNTFYLQMNSLKPEDTAVYYCAARSSVWGQGTQVTVSS
polyreactivity (PSR sort gate): low polyreactivity

QVQLVQSGGGLVQAGGSLRLSCAASGITFIHNAMGWYRQAPGKERELVAAITTSDGSTYYADSVKGRFTISRDNAKYTVYFQMNSLTPEDTAVYYCAARGRHSGYYSFPYYYWGQGTQVTVSS
polyreactivity (PSR sort gate): low polyreactivity

QVQLVESGGGLVQAGGSLRLSCAASGFIFLSNAMGWYRQAPGKERELVAAITSGGSTNYADSVKGRFTISRDNAKNTVYLQMNSLKPEDTAVYYCAARAPQWTFALGRWDRDYWGQGTQVTVSS
polyreactivity (PSR sort gate): low polyreactivity

QVQLVESGGVLVQAGGSLRLSCAASGFTFNYYVMGWYRQAPWKERELVATITSVGSTYYADSVKGRFTISRDNAKNTVYLQMNSLKPEDTAVYYCNADWYWRVYWGQGTQVTVSS
polyreactivity (PSR sort gate): high polyreactivity

QVQLVESGGGLVQAGGSLRFSCAASGSIFIANAMGWYRQAPGQERALVAAIDSGGSTNYADSVKGRFTISRDNAKNTVYLQMNSLKPEDTAVYYCADDGTLTAPGGDYWGQGTQVTVSS
polyreactivity (PSR sort gate): high polyreactivity
